From patent publication US20210388110A1 (published 2021)

target: T1, soluble human GPC3 (human, UniProt P51654 25-563, limits assumed); assay: SPR (Biacore), soluble human GPC3
T1 construct: soluble human GPC3 as analyte; also called glypican 3
T1 sequence (P51654 other isoform, or with tags, fused parts or gaps limits assumed, form in doubt): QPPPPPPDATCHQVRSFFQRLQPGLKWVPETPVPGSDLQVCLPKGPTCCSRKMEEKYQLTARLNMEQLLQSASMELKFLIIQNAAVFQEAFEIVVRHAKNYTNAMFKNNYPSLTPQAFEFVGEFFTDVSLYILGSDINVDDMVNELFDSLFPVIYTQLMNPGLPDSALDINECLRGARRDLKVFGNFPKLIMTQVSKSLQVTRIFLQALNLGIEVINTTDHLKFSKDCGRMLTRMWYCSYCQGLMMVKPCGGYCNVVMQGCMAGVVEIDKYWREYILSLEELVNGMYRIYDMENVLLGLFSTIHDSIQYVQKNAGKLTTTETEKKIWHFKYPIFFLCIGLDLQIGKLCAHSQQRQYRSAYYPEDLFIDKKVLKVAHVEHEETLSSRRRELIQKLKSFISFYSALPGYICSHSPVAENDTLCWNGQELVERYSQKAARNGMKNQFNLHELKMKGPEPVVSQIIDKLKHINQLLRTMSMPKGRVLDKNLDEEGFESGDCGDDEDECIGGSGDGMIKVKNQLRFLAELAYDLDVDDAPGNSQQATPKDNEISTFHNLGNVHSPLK

Row | Kd | Binder
1 | 3.43 nM | H0610-G1dh/none-Hi-Kn010G3/L0082-k0 (antibody, human IgG1, kappa, single-arm (one Fab)) heavy: not shown EPKSSDKTHTCPPCPAPELLGGPSVFLFPPKPKDTLMISRTPEVTCVVVDVSHEDPEVKFNWYVDGVEVHNAKTKPREEQYNSTYRVVSVLTVLHQDWLNGKEYKCKVSNKALPAPIEKTISKAKGQPREPQVCTLPPSRDELTKNQVSLWCLVKGFYPSDIAVEWESNGQPENNYKTTPPVLDSDGSFFLYSKLTVDKSRWQQGNVFSCSVMHEALHNRYTQKSLSLSP light: DIVMTQSPLSLPVTPGEPASISCRSSQSLVHSNRNTYVHWYQQKPGQAPRLLIYKVSNRFSGVPDRFSGSGSGTDFTLKISRVEAEDVGVYYCGQGTQVPYTFGQGTKLEIKRTVAAPSVFIFPPSDEQLKSGTASVVCLLNNFYPREAKVQWKVDNALQSGNSQESVTEQDSKDSTYSLSSTLTLSKADYEKHKVYACEVTHQGLSSPVTKSFNRGEC
2 | 1.17 nM | H0610-G1dh/none-Hi-Kn010G3/L0085-k0 (antibody, human IgG1, kappa, single-arm (one Fab)) heavy: not shown EPKSSDKTHTCPPCPAPELLGGPSVFLFPPKPKDTLMISRTPEVTCVVVDVSHEDPEVKFNWYVDGVEVHNAKTKPREEQYNSTYRVVSVLTVLHQDWLNGKEYKCKVSNKALPAPIEKTISKAKGQPREPQVCTLPPSRDELTKNQVSLWCLVKGFYPSDIAVEWESNGQPENNYKTTPPVLDSDGSFFLYSKLTVDKSRWQQGNVFSCSVMHEALHNRYTQKSLSLSP light: DIVMTQSPLSLPVTPGEPASISCRSSQSLVHSNRNTYLEWYQQKPGQAPRLLIYKVSNRFSGVPDRFSGSGSGTDFTLKISRVEAEDVGVYYCGQGTQVPYTFGQGTKLEIKRTVAAPSVFIFPPSDEQLKSGTASVVCLLNNFYPREAKVQWKVDNALQSGNSQESVTEQDSKDSTYSLSSTLTLSKADYEKHKVYACEVTHQGLSSPVTKSFNRGEC
3 | 1.12 nM | H0610-G1dh/none-Hi-Kn010G3/L0090-k0 (antibody, human IgG1, kappa, single-arm (one Fab)) heavy: not shown EPKSSDKTHTCPPCPAPELLGGPSVFLFPPKPKDTLMISRTPEVTCVVVDVSHEDPEVKFNWYVDGVEVHNAKTKPREEQYNSTYRVVSVLTVLHQDWLNGKEYKCKVSNKALPAPIEKTISKAKGQPREPQVCTLPPSRDELTKNQVSLWCLVKGFYPSDIAVEWESNGQPENNYKTTPPVLDSDGSFFLYSKLTVDKSRWQQGNVFSCSVMHEALHNRYTQKSLSLSP light: DIVMTQSPLSLPVTPGEPASISCRSSQSLVHSNRNTYLMWYQQKPGQAPRLLIYKVSNRFSGVPDRFSGSGSGTDFTLKISRVEAEDVGVYYCGQGTQVPYTFGQGTKLEIKRTVAAPSVFIFPPSDEQLKSGTASVVCLLNNFYPREAKVQWKVDNALQSGNSQESVTEQDSKDSTYSLSSTLTLSKADYEKHKVYACEVTHQGLSSPVTKSFNRGEC
4 | 0.106 nM | H0610-G1dh/none-Hi-Kn010G3/L0093-k0 (antibody, human IgG1, kappa, single-arm (one Fab)) heavy: not shown EPKSSDKTHTCPPCPAPELLGGPSVFLFPPKPKDTLMISRTPEVTCVVVDVSHEDPEVKFNWYVDGVEVHNAKTKPREEQYNSTYRVVSVLTVLHQDWLNGKEYKCKVSNKALPAPIEKTISKAKGQPREPQVCTLPPSRDELTKNQVSLWCLVKGFYPSDIAVEWESNGQPENNYKTTPPVLDSDGSFFLYSKLTVDKSRWQQGNVFSCSVMHEALHNRYTQKSLSLSP light: DIVMTQSPLSLPVTPGEPASISCRSSQSLVHSNRNTYLQWYQQKPGQAPRLLIYKVSNRFSGVPDRFSGSGSGTDFTLKISRVEAEDVGVYYCGQGTQVPYTFGQGTKLEIKRTVAAPSVFIFPPSDEQLKSGTASVVCLLNNFYPREAKVQWKVDNALQSGNSQESVTEQDSKDSTYSLSSTLTLSKADYEKHKVYACEVTHQGLSSPVTKSFNRGEC
5 | 4.38 nM | H0610-G1dh/none-Hi-Kn010G3/L0107-k0 (antibody, human IgG1, kappa, single-arm (one Fab)) heavy: not shown EPKSSDKTHTCPPCPAPELLGGPSVFLFPPKPKDTLMISRTPEVTCVVVDVSHEDPEVKFNWYVDGVEVHNAKTKPREEQYNSTYRVVSVLTVLHQDWLNGKEYKCKVSNKALPAPIEKTISKAKGQPREPQVCTLPPSRDELTKNQVSLWCLVKGFYPSDIAVEWESNGQPENNYKTTPPVLDSDGSFFLYSKLTVDKSRWQQGNVFSCSVMHEALHNRYTQKSLSLSP light: DIVMTQSPLSLPVTPGEPASISCRSSQSLVHSNRNTYLHWYQQKPGQAPRLLIYKVSIRFSGVPDRFSGSGSGTDFTLKISRVEAEDVGVYYCGQGTQVPYTFGQGTKLEIKRTVAAPSVFIFPPSDEQLKSGTASVVCLLNNFYPREAKVQWKVDNALQSGNSQESVTEQDSKDSTYSLSSTLTLSKADYEKHKVYACEVTHQGLSSPVTKSFNRGEC
6 | 4.34 nM | H0610-G1dh/none-Hi-Kn010G3/L0115-k0 (antibody, human IgG1, kappa, single-arm (one Fab)) heavy: not shown EPKSSDKTHTCPPCPAPELLGGPSVFLFPPKPKDTLMISRTPEVTCVVVDVSHEDPEVKFNWYVDGVEVHNAKTKPREEQYNSTYRVVSVLTVLHQDWLNGKEYKCKVSNKALPAPIEKTISKAKGQPREPQVCTLPPSRDELTKNQVSLWCLVKGFYPSDIAVEWESNGQPENNYKTTPPVLDSDGSFFLYSKLTVDKSRWQQGNVFSCSVMHEALHNRYTQKSLSLSP light: DIVMTQSPLSLPVTPGEPASISCRSSQSLVHSNRNTYLHWYQQKPGQAPRLLIYKVSWRFSGVPDRFSGSGSGTDFTLKISRVEAEDVGVYYCGQGTQVPYTFGQGTKLEIKRTVAAPSVFIFPPSDEQLKSGTASVVCLLNNFYPREAKVQWKVDNALQSGNSQESVTEQDSKDSTYSLSSTLTLSKADYEKHKVYACEVTHQGLSSPVTKSFNRGEC
7 | 2.42 nM | H0610-G1dh/none-Hi-Kn010G3/L0122-k0 (antibody, human IgG1, kappa, single-arm (one Fab)) heavy: not shown EPKSSDKTHTCPPCPAPELLGGPSVFLFPPKPKDTLMISRTPEVTCVVVDVSHEDPEVKFNWYVDGVEVHNAKTKPREEQYNSTYRVVSVLTVLHQDWLNGKEYKCKVSNKALPAPIEKTISKAKGQPREPQVCTLPPSRDELTKNQVSLWCLVKGFYPSDIAVEWESNGQPENNYKTTPPVLDSDGSFFLYSKLTVDKSRWQQGNVFSCSVMHEALHNRYTQKSLSLSP light: DIVMTQSPLSLPVTPGEPASISCRSSQSLVHSNRNTYLHWYQQKPGQAPRLLIYKVSNRISGVPDRFSGSGSGTDFTLKISRVEAEDVGVYYCGQGTQVPYTFGQGTKLEIKRTVAAPSVFIFPPSDEQLKSGTASVVCLLNNFYPREAKVQWKVDNALQSGNSQESVTEQDSKDSTYSLSSTLTLSKADYEKHKVYACEVTHQGLSSPVTKSFNRGEC
8 | 0.972 nM | H0610-G1dh/none-Hi-Kn010G3/L0124-k0 (antibody, human IgG1, kappa, single-arm (one Fab)) heavy: not shown EPKSSDKTHTCPPCPAPELLGGPSVFLFPPKPKDTLMISRTPEVTCVVVDVSHEDPEVKFNWYVDGVEVHNAKTKPREEQYNSTYRVVSVLTVLHQDWLNGKEYKCKVSNKALPAPIEKTISKAKGQPREPQVCTLPPSRDELTKNQVSLWCLVKGFYPSDIAVEWESNGQPENNYKTTPPVLDSDGSFFLYSKLTVDKSRWQQGNVFSCSVMHEALHNRYTQKSLSLSP light: DIVMTQSPLSLPVTPGEPASISCRSSQSLVHSNRNTYLHWYQQKPGQAPRLLIYKVSNRLSGVPDRFSGSGSGTDFTLKISRVEAEDVGVYYCGQGTQVPYTFGQGTKLEIKRTVAAPSVFIFPPSDEQLKSGTASVVCLLNNFYPREAKVQWKVDNALQSGNSQESVTEQDSKDSTYSLSSTLTLSKADYEKHKVYACEVTHQGLSSPVTKSFNRGEC
9 | 1.71 nM | H0610-G1dh/none-Hi-Kn010G3/L0125-k0 (antibody, human IgG1, kappa, single-arm (one Fab)) heavy: not shown EPKSSDKTHTCPPCPAPELLGGPSVFLFPPKPKDTLMISRTPEVTCVVVDVSHEDPEVKFNWYVDGVEVHNAKTKPREEQYNSTYRVVSVLTVLHQDWLNGKEYKCKVSNKALPAPIEKTISKAKGQPREPQVCTLPPSRDELTKNQVSLWCLVKGFYPSDIAVEWESNGQPENNYKTTPPVLDSDGSFFLYSKLTVDKSRWQQGNVFSCSVMHEALHNRYTQKSLSLSP light: DIVMTQSPLSLPVTPGEPASISCRSSQSLVHSNRNTYLHWYQQKPGQAPRLLIYKVSNRMSGVPDRFSGSGSGTDFTLKISRVEAEDVGVYYCGQGTQVPYTFGQGTKLEIKRTVAAPSVFIFPPSDEQLKSGTASVVCLLNNFYPREAKVQWKVDNALQSGNSQESVTEQDSKDSTYSLSSTLTLSKADYEKHKVYACEVTHQGLSSPVTKSFNRGEC
10 | 3.12 nM | H0610-G1dh/none-Hi-Kn010G3/L0127-k0 (antibody, human IgG1, kappa, single-arm (one Fab)) heavy: not shown EPKSSDKTHTCPPCPAPELLGGPSVFLFPPKPKDTLMISRTPEVTCVVVDVSHEDPEVKFNWYVDGVEVHNAKTKPREEQYNSTYRVVSVLTVLHQDWLNGKEYKCKVSNKALPAPIEKTISKAKGQPREPQVCTLPPSRDELTKNQVSLWCLVKGFYPSDIAVEWESNGQPENNYKTTPPVLDSDGSFFLYSKLTVDKSRWQQGNVFSCSVMHEALHNRYTQKSLSLSP light: DIVMTQSPLSLPVTPGEPASISCRSSQSLVHSNRNTYLHWYQQKPGQAPRLLIYKVSNRPSGVPDRFSGSGSGTDFTLKISRVEAEDVGVYYCGQGTQVPYTFGQGTKLEIKRTVAAPSVFIFPPSDEQLKSGTASVVCLLNNFYPREAKVQWKVDNALQSGNSQESVTEQDSKDSTYSLSSTLTLSKADYEKHKVYACEVTHQGLSSPVTKSFNRGEC
11 | 4.54 nM | H0610-G1dh/none-Hi-Kn010G3/L0129-k0 (antibody, human IgG1, kappa, single-arm (one Fab)) heavy: not shown EPKSSDKTHTCPPCPAPELLGGPSVFLFPPKPKDTLMISRTPEVTCVVVDVSHEDPEVKFNWYVDGVEVHNAKTKPREEQYNSTYRVVSVLTVLHQDWLNGKEYKCKVSNKALPAPIEKTISKAKGQPREPQVCTLPPSRDELTKNQVSLWCLVKGFYPSDIAVEWESNGQPENNYKTTPPVLDSDGSFFLYSKLTVDKSRWQQGNVFSCSVMHEALHNRYTQKSLSLSP light: DIVMTQSPLSLPVTPGEPASISCRSSQSLVHSNRNTYLHWYQQKPGQAPRLLIYKVSNRRSGVPDRFSGSGSGTDFTLKISRVEAEDVGVYYCGQGTQVPYTFGQGTKLEIKRTVAAPSVFIFPPSDEQLKSGTASVVCLLNNFYPREAKVQWKVDNALQSGNSQESVTEQDSKDSTYSLSSTLTLSKADYEKHKVYACEVTHQGLSSPVTKSFNRGEC
12 | 2.53 nM | H0610-G1dh/none-Hi-Kn010G3/L0134-k0 (antibody, human IgG1, kappa, single-arm (one Fab)) heavy: not shown EPKSSDKTHTCPPCPAPELLGGPSVFLFPPKPKDTLMISRTPEVTCVVVDVSHEDPEVKFNWYVDGVEVHNAKTKPREEQYNSTYRVVSVLTVLHQDWLNGKEYKCKVSNKALPAPIEKTISKAKGQPREPQVCTLPPSRDELTKNQVSLWCLVKGFYPSDIAVEWESNGQPENNYKTTPPVLDSDGSFFLYSKLTVDKSRWQQGNVFSCSVMHEALHNRYTQKSLSLSP light: DIVMTQSPLSLPVTPGEPASISCRSSQSLVHSNRNTYLHWYQQKPGQAPRLLIYKVSNRYSGVPDRFSGSGSGTDFTLKISRVEAEDVGVYYCGQGTQVPYTFGQGTKLEIKRTVAAPSVFIFPPSDEQLKSGTASVVCLLNNFYPREAKVQWKVDNALQSGNSQESVTEQDSKDSTYSLSSTLTLSKADYEKHKVYACEVTHQGLSSPVTKSFNRGEC
13 | 3.38 nM | H0610-G1dh/none-Hi-Kn010G3/L0140-k0 (antibody, human IgG1, kappa, single-arm (one Fab)) heavy: not shown EPKSSDKTHTCPPCPAPELLGGPSVFLFPPKPKDTLMISRTPEVTCVVVDVSHEDPEVKFNWYVDGVEVHNAKTKPREEQYNSTYRVVSVLTVLHQDWLNGKEYKCKVSNKALPAPIEKTISKAKGQPREPQVCTLPPSRDELTKNQVSLWCLVKGFYPSDIAVEWESNGQPENNYKTTPPVLDSDGSFFLYSKLTVDKSRWQQGNVFSCSVMHEALHNRYTQKSLSLSP light: DIVMTQSPLSLPVTPGEPASISCRSSQSLVHSNRNTYLHWYQQKPGQAPRLLIYKVSNRFLGVPDRFSGSGSGTDFTLKISRVEAEDVGVYYCGQGTQVPYTFGQGTKLEIKRTVAAPSVFIFPPSDEQLKSGTASVVCLLNNFYPREAKVQWKVDNALQSGNSQESVTEQDSKDSTYSLSSTLTLSKADYEKHKVYACEVTHQGLSSPVTKSFNRGEC
